From IntAct's records for PubMed 23603394 come the findings set out here.

To fix the notation:
B1: PH and SEC7 domain-containing protein 1 (Homo sapiens), A5PKW4 (parent)
chain: MAQGAMRFCSEGDCAISPPRCPRRWLPEGPVPQSPPASMYGSTGSLLRRVAGPGPRGRELGRVTAPCTPLRGPPSPRVAPSPWAPSSPTGQPPPGAQSSVVIFRFVEKASVRPLNGLPAPGGLSRSWDLGGVSPPRPTPALGPGSNRKLRLEASTSDPLPARGGSALPGSRNLVHGPPAPPQVGADGLYSSLPNGLGGPPERLATLFGGPADTGFLNQGDTWSSPREVSSHAQRIARAKWEFFYGSLDPPSSGAKPPEQAPPSPPGVGSRQGSGVAVGRAAKYSETDLDTVPLRCYRETDIDEVLAEREEADSAIESQPSSEGPPGTAYPPAPRPGPLPGPHPSLGSGNEDEDDDEAGGEEDVDDEVFEASEGARPGSRMPLKSPVPFLPGTSPSADGPDSFSCVFEAILESHRAKGTSYTSLASLEALASPGPTQSPFFTFELPPQPPAPRPDPPAPAPLAPLEPDSGTSSAADGPWTQRGEEEEAEARAKLAPGREPPSPCHSEDSLGLGAAPLGSEPPLSQLVSDSDSELDSTERLALGSTDTLSNGQKADLEAAQRLAKRLYRLDGFRKADVARHLGKNNDFSKLVAGEYLKFFVFTGMTLDQALRVFLKELALMGETQERERVLAHFSQRYFQCNPEALSSEDGAHTLTCALMLLNTDLHGHNIGKRMTCGDFIGNLEGLNDGGDFPRELLKALYSSIKNEKLQWAIDEEELRRSLSELADPNPKVIKRISGGSGSGSSPFLDLTPEPGAAVYKHGALVRKVHADPDCRKTPRGKRGWKSFHGILKGMILYLQKEEYKPGKALSETELKNAISIHHALATRASDYSKRPHVFYLRTADWRVFLFQAPSLEQMQSWITRINVVAAMFSAPPFPAAVSSQKKFSRPLLPSAATRLSQEEQVRTHEAKLKAMASELREHRAAQLGKKGRGKEAEEQRQKEAYLEFEKSRYSTYAALLRVKLKAGSEELDAVEAALAQAGSTEDGLPPSHSSPSLQPKPSSQPRAQRHSSEPRPGAGSGRRKP

The first experiment covers variants of B1. To be noted: with arf6_human ARF6, P62330.
Chain of arf6_human ARF6, P62330 (P62330 whole entry): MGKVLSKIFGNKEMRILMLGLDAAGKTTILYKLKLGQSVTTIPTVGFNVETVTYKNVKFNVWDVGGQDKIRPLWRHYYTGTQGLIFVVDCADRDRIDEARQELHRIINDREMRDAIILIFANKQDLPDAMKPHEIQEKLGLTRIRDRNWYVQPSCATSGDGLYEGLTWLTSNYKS
Regarding R765E, the “effect of a mutation on the interaction” value is given as “decreasing interaction”.
On the same count and under the same terms, for K766E the value was “decreasing interaction”.

Another experiment covers variants of B1. To be noted: with arf6_human ARF6, P62330. This is another data set of the same source.
With E621K, the “effect of a mutation on the interaction” value was “disrupting interaction”.

In the next experiment the parent is B1. The conditions noted are these: with arf6_human ARF6, P62330. The source holds these as a separate data set.
Regarding E621K, the “effect of a mutation on the interaction” value was “decreasing interaction”.
